The first experiment addresses T1, synthetic amylospheroids (synthetic ASPD) (UniProt P05067 672-713).
T1 construct: Spherical Abeta assembly of about 10 nm, made in vitro; In SPR it was solid-phased on the chip; In the imaging assay it was pre-incubated with peptide and added to neurons
Put plainly: ASPD pre-incubated with peptide, imaging of ASPD bound to rat hippocampal neurons. As for the experimental part:
A liquid mixture of peptide and synthetic ASPD was incubated at 4° C. for 15 minutes to pretreat the ASPD and this liquid mixture was added to primary cultured rat hippocampal neurons cultured in a 96-well plate.
After incubation at 37° C. for 15 minutes in a CO₂ incubator, the wells were washed with PBS. Then, 2% paraformaldehyde (50 μl/well) was added thereto for immobilization performed for 20 minutes at 37° C. and further 4% paraformaldehyde (50 μl/well) was added thereto for immobilization performed for 20 minutes at 37° C. After washing and blocking, a primary antibody solution containing anti-ASPD antibody (mASD3) and anti-MAP2 antibody (trade name: sc-20172, manufactured by SANTACRUZ) was added, which then was left overnight. After washing, a secondary antibody solution containing Alexa Fluoro (trademark) 568 anti-mouse antibody (trade name: A11031, manufactured by life technologies), Alexa Fluoro (trademark) 488 anti-rabbit antibody (trade name: A11034, manufactured by life technologies), and DAPI (trade name: D523, manufactured by Dojindo) was added and then fluorescence microscopic observation was performed.
Subsequently, steps 4 to 5 were performed as follows: From the microscopic observation data, a calibration curve as shown in FIG. 2 was drawn, an approximate curve was created within a range where linearity was maintained, and then ED₅₀ was calculated. Using, as an indicator, “titer” that is defined by the ratio of ED₅₀ of the ASPD treated with peptide to ED₅₀ of the ASPD alone, the ASPD-binding inhibitory ability of peptide was evaluated.
T1 sequence (P05067 672-713): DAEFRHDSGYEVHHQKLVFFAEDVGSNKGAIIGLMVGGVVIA
HFVW (also called HFVW) [Peptide 21]: the “ASPD-binding inhibitory ability (titer = ED50[ASPD+Peptide]/ED50[ASPD])” value (“ASPD-binding inhibitory ability” below) amounted to 1.5.

In the case of HKNW (also called HKNW) [Peptide 03], the “ASPD-binding inhibitory ability” value stood at 1.5.

On to HFDW (also called HFDW) [Peptide 18], for which the “ASPD-binding inhibitory ability” value worked out at 1.5. On to HFHW (also called HFHW) [Peptide 23], for which the “ASPD-binding inhibitory ability” value came to 1.5. Take HWNW (also called HWNW) [Peptide 06]: the “ASPD-binding inhibitory ability” value stood at 1.5. With HFMW (also called HFMW) [Peptide 17], the “ASPD-binding inhibitory ability” value turned out to be 1.5. On to HQNW (also called HQNW) [Peptide 07], for which the “ASPD-binding inhibitory ability” value is 1.5.

HVNW (also called HVNW) [Peptide 11]: the “ASPD-binding inhibitory ability” value is 1.5.

HFGW (also called HFGW) [Peptide 13]: the “ASPD-binding inhibitory ability” value was found to be 1.5. On the same count and under the same terms, in the case of HFAW (also called HFAW) [Peptide 20] it was 1.5; in that of HRNW (also called HRNW) [Peptide 02], 1.5. For HFIW (also called HFIW) [Peptide 14], the “ASPD-binding inhibitory ability” value stood at 1.5. With HFYW (also called HFYW) [Peptide 24], the “ASPD-binding inhibitory ability” value stood at 1.5. As for HFLW (also called HFLW) [Peptide 12], the “ASPD-binding inhibitory ability” value came to 1.5. The same measure, in the same setting: in the case of HDNW (also called HDNW) [Peptide 04] it was 1.5; in that of HYNW (also called HYNW) [Peptide 08], 1.5. As to HANW (also called HANW) [Peptide 10], the “ASPD-binding inhibitory ability” value stood at 1.5. With HFEW (also called HFEW) [Peptide 19], the “ASPD-binding inhibitory ability” value turned out to be 1.5. The same measure, in the same setting: under HFRW (also called HFRW) [Peptide 16] stands 1.5. In the case of HFWW (also called HFWW) [Peptide 15], the “ASPD-binding inhibitory ability” value came out at 1.5. Still for that read-out and setting: under HTNW (also called HTNW) [Peptide 09] stands 1.5; under HFKW (also called HFKW) [Peptide 22], 1.5; under HHNW (also called HHNW) [Peptide 05], 1.5.

The target of the next experiment is T1, synthetic amylospheroids (synthetic …). The experiment can be described thus: SPR, synthetic ASPD solid-phased on the chip, peptide as analyte. As for the experimental part: Synthetic ASPD were solid-phased on a chip and each peptide shown in Table 3 below was allowed to flow as an analyte. Then the dissociation constant (KD) was determined by surface plasmon resonance (SPR).
Two peptides (HNNW (SEQ ID NO: 27) and HPNW (SEQ ID NO: 28)) that could not inhibit the binding of ASPD to neurons in the evaluation performed in section 1 above were used as negative controls.
Background: In SPR one partner is held on a chip, and binding of the other changes the refractive index at the surface.
With HNNW [HNNW (negative control peptide)], the binding result is given as “no binding”. On to HPNW [HPNW (negative control peptide)], for which the binding result is on record as “no binding”.

The values above are taken from patent US20190145962A1 (TAO HEALTH LIFE PHARMA, published 2019).
